From article PMC8187382, “The archaeal protein SepF is essential for cell division in Haloferax volcanii” (Nature Communications, 2021)

Molecular target: the molecule itself
Assay: SEC; 500 µl freshly purified SepF-His on Superdex 200 10/300 GL in Buffer A (1.5 M KCl, 100 mM NaCl, 50 mM HEPES, 1 mM DTT, pH 7.5), 0.5 ml/min; gel filtration standard run under the same conditions; no protein eluted at volumes of higher oligomers

B1: SepF-His (H. volcanii SepF expressed in E. coli) (natural protein, Haloferax volcanii, UniProt D4H018 1-118, looked up)
chain: MGIMSKILGGGGSRTTEDYVELDLDDFDTARGDAGLSVHIAEIGGQQDVIAIKDAVYDGNLVIADITRHTTSDSTMEHIIDDLRQVAREVDGDIVQKGDDQIVITPTGISISRQKLNG
notes: SepF of Haloferax volcanii, encoded by hvo_0392, 118 amino acids, 12.6 kDa; sepF amplified from genomic DNA of strain H26 and cloned by FX-cloning; FX-cloning may leave extra residues at the ends; also called purified SepF; Hvo_0392
Question: Which “stoichiometry N” value does the source give for B1 here?
Answer: 2
